{"source": "paper PMC3206007", "about": "“Crystal Structure of the Complex mAb 17.2 and the C-Terminal Region of Trypanosoma cruzi P2β Protein: Implications in Cross-Reactivity” (PLoS Neglected Tropical Diseases, 2011)", "binders": {"B1": {"name": "murine monoclonal antibody 17.2 (antibody, V domains shown)", "VH": "EVQLEESGGRLVQPKGSLKLSCAASGFSFNTNAMNWVRQAPGKGLEWVARIRSKINNYSTYYADSVKDRFTISRDDSQSMLYLQMNNLKTEDTAMYYCVRGTTYWGQGTLVTVSA", "VL": "not shown", "notes": "variable and CH1 domains as the heavy chain of m1 (PDB 3SGE, 3SGD); the rest is the mouse IgG1 constant region, not in the entries; as the light chain of m1 (kappa; PDB 3SGE, 3SGD); Whole IgG1, kappa; also called mAb 17.2; source: purified from ascitic fluid (40% ammonium sulphate, DEAE-Sephacel)"}}, "molecular_target": "T1, human β1 adrenergic receptor (Homo sapiens, UniProt P08588)", "T1 construct": "also called β1-AR; ß1-AR; source: HEK cells, stably transfected (HEK-β1), on cells", "T1 sequence (P08588 whole entry)": "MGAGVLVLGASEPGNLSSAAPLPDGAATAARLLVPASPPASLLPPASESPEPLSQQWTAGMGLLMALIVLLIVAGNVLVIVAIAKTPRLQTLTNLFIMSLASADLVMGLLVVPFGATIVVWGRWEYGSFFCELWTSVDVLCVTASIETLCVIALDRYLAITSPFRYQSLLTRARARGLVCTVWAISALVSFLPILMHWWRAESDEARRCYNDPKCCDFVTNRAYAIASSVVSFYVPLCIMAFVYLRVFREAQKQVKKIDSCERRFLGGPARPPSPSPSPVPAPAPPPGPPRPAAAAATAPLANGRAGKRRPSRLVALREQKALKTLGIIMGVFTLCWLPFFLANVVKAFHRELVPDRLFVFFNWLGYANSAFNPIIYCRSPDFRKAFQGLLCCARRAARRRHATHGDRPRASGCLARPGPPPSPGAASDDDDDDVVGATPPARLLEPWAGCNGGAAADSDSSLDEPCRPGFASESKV", "experiment": "flow cytometry on cells; HEK and HEK-β1 cells incubated with mAb 17.2 (500 nM) 1 h at room temperature in supplemented DMEM; Cy3-conjugated goat anti-mouse IgG; propidium iodide to exclude dead cells", "conditions": "one partner purified"}
{"binder": "B1", "values": [{"measurement": "binding result", "value": "binds"}]}
